Test results: article PMC10313822, “Disruption of ER ion homeostasis maintained by an ER anion channel CLCC1 contributes to ALS-like pathologies” (Cell Research, 2023)
Positions count from the first letter of the chain named. Names and notes keep the numbering of the source.

B1: purified full-length mouse CLCC1, His-tagged (natural protein, UniProt Q99LI2 19-539, looked up)
chain: HDDDWIDPTDMLNYDAASGTMRKSQVRSGTSEKKEVSPDSSEAEELSDCLHRLDSLTHKVDSCEKKKMKDYESQSNPVFRRYLNKILIEAGKLGLPDENKVEMRYDAEILLSRQTLLEIQKFLSGEEWKPGALDDALSDILINFKCHDSEAWKWQFEDYFGVDPYNVFMVLLCLLCLVVLVATELWTYVRWYTQMKRIFIISFLLSLAWNWIYLYKMAFAQHQANIAGMEPFDNLCAKKMDWTGSLWEWFTSSWTYKDDPCQKYYELLIVNPIWLVPPTKALAITFTNFVTEPLKHIGKGAGEFIKALMKEIPVLLQIPVLAILALAVLSFCYGAGRSVPMLRHFGGPDREPPRALEPDDRRRQKGLDYRLHGGAGDADFSYRGPAGSIEQGPYDKMHASKRDALRQRFHSGNKSPEVLRAFDLPDTEAQEHPEVVPSHKSPIMNTNLETGELPGESTPTEYSQSAKDVSGQVPSAGKSSPTVDKAQLKTDSECSPPGGCPPSKEAAVAAHGTEPVSSPCG
notes: CLCC1, mouse, full length (NM_145543.2; 539 residues by the printed limits of the C-terminal polypeptide 355-539); The predicted signal peptide may be removed in insect cells; also called mCLCC1; WT mCLCC1; source: High Five insect cells (baculovirus), purified (Ni-NTA, Superose 6 Increase); not shown: His10, C-terminal, kept
B2: C350F mutant mouse CLCC1, purified (natural protein, UniProt Q99LI2 19-539, looked up)
chain: B1 chain with C332F
notes: CLCC1, mouse, full length, with C350F; also called C350F mCLCC1; source: High Five insect cells (baculovirus), purified (Ni-NTA, Superose 6 Increase)

Molecular target: the molecule itself
Experiment: SEC; Superose 6 Increase, TBS (50 mM Tris-HCl pH 7.4, 150 mM NaCl) with 0.025% DDM and 2 mM DTT; size estimated from standard markers

Row | Protein | binding result
1 | B1 | binds
2 | B2 | binds
